This passage reports IC50 (µg/ml), in vitro ACE inhibitory activity results from patent US20160222058A1.

This assay concerns the target Angiotensin converting enzyme (ACE). Briefly: cell-based or functional assay.
Take “Ovotransferrin hydrolysate (thermolysin then pepsin) of ovotransferrin treated by sonication prior to hydrolysis”: the IC50 (µg/ml), in vitro ACE inhibitory activity came to 9.2 µg/mL.

As for “Ovotransferrin hydrolysate (thermolysin then pepsin) of ovotransferrin treated with beta-mercaptoethanol prior to hydrolysis”, the IC50 (µg/ml), in vitro ACE inhibitory activity was determined as 45.6 µg/mL.

Turning to “Ovotransferrin hydrolysate (thermolysin then pepsin) of ovotransferrin treated with dithiothreitol prior to hydrolysis”, the IC50 (µg/ml), in vitro ACE inhibitory activity is 10.7 µg/mL.

“Ovotransferrin hydrolysate prepared by pepsin, without reducing agent treatment” showed an IC50 (µg/ml), in vitro ACE inhibitory activity of 320 µg/mL.

In turn, “Ovotransferrin hydrolysate prepared by thermolysin and pepsin in combination, without sonication or reducing agent treatment” registered an IC50 (µg/ml), in vitro ACE inhibitory activity of 198 µg/mL.

For the substance “Ovotransferrin hydrolysate prepared by thermolysin, without reducing agent treatment”, the IC50 (µg/ml), in vitro ACE inhibitory activity was determined as 215 µg/mL.
